The chains are these.
B1: SAM and SH3 domain-containing protein 1, residues 630 to 700; numbered along this chain, O94885 (parent)
chain: GRPPQPKSVEDLLDRINLKEHMPTFLFNGYEDLDTFKLLEEEDLDELNIRDPEHRAVLLTAVELLQEYDSN

Consider 38 variants from the Human Domainome abundance scans (Beltran et al. 2025).

± gives the uncertainty stated by the source.

Variants of B1 are the subject of the data set. The data set is described as follows: abundance fitness (aPCA) (normalised: wild type 0, dead -1); higher = more abundant; growth selection in yeast, the domain comes from the species named. The note with it: Homo sapiens.
Take GRPPQPKSVEDLLDRINLKEHMPTFLFNGYEDLDTFKLLEEEDHDELNIRDPEHRAVLLTAVELLQEYDSN: the abundance fitness is -0.941 ± 0.1.
As to GRPPQPKSVEDLLDRINLKEHMPTFLFNGYEDLDTFKLLEEEDCDELNIRDPEHRAVLLTAVELLQEYDSN, the abundance fitness is -0.598 ± 0.075.
In the case of GRPPQPKKVEDLLDRINLKEHMPTFLFNGYEDLDTFKLLEEEDLDELNIRDPEHRAVLLTAVELLQEYDSN it was -0.759 ± 0.11.
In the case of GRPPQPKSVEDLLDRINLKEHMPTFLFNGYEDLDTFKLLEEEDLLELNIRDPEHRAVLLTAVELLQEYDSN it was -0.113 ± 0.033.
As for GRPPQPKSVEDLLDRINLKEHMPTFLFNGYEDLDTFKLLEEEDLIELNIRDPEHRAVLLTAVELLQEYDSN, the figure is 0.037 ± 0.039; as for GRPPQPKSVEDLLDRINLKEHMPTFLFNGYEDLDTFKLLEEEDLAELNIRDPEHRAVLLTAVELLQEYDSN, -0.622 ± 0.057; as for GRPPQPKSVEDLLDRINLKEHMPTFLFNGYDDLDTFKLLEEEDLDELNIRDPEHRAVLLTAVELLQEYDSN, 0.129 ± 0.042.
GRPPQPKSVEDLLDRINLKEHMPTFLFNGYEDLDTFKLLEEEDLDELNIRDPEHEAVLLTAVELLQEYDSN: the abundance fitness is -0.522 ± 0.081.
In the case of GRPPQPKSVEDLLDRINLKEHMPTFLFNGYEDLDTFKLLEEEDLDELNIRDPEHCAVLLTAVELLQEYDSN it was -0.888 ± 0.087; in that of GRPPQPKSVEDLLDRINLKEHMPTFLFNGYEDLDTFKGLEEEDLDELNIRDPEHRAVLLTAVELLQEYDSN, -0.061 ± 0.038.
In the case of GRPPQPKSVEDLLDRINLKEHMPTFLFNGYEDLDTFKPLEEEDLDELNIRDPEHRAVLLTAVELLQEYDSN it was -0.857 ± 0.081.
For the variant GRPPQPKSVEDLLDRINLKEHMPTFLFNGYEDLDTFKLLSEEDLDELNIRDPEHRAVLLTAVELLQEYDSN, the abundance fitness worked out at 0.252 ± 0.032.
In the case of GRPPQPKSVEDLLDRINLKEHMPTFLFNGYEDLDTFKLLIEEDLDELNIRDPEHRAVLLTAVELLQEYDSN it was -0.431 ± 0.055; in that of GRYPQPKSVEDLLDRINLKEHMPTFLFNGYEDLDTFKLLEEEDLDELNIRDPEHRAVLLTAVELLQEYDSN, 0.005 ± 0.047; in that of GRPPQPKSVEDLLDRINLKGHMPTFLFNGYEDLDTFKLLEEEDLDELNIRDPEHRAVLLTAVELLQEYDSN, -0.673 ± 0.094.
As for GRPPQPKSVEDLLDRINLKTHMPTFLFNGYEDLDTFKLLEEEDLDELNIRDPEHRAVLLTAVELLQEYDSN, the figure is -0.48 ± 0.065.
In the case of GRPPQPKSVEDLLDRINLKEHMPTFLFNGYEDLDTFKLLEEEDLDELNIRDPEHRAVLLTAVELLQVYDSN it was -0.232 ± 0.044.
On to GRPPQPKSVEDLLDRINLKEHMPTFLFNGYEDLDTFKLLEEEDLDELNIRDPEHRAVLLTAVELLQHYDSN, for which the abundance fitness was -0.165 ± 0.047.
In the case of GRPPQPKSVEDLLDRINLKEHMPTFLFNGYEDLDTFKLLEEEDLDELNIRDPEHRAVLLTAVELLQNYDSN it was -0.1 ± 0.048; in that of GRPPQPKSVEDLLDRINLKEHMPTFLFNGYEDLDTFKLLEEEDLDELNIRDPEHRAVLLTAVELLQMYDSN, -0.342 ± 0.049.
In the case of GRPPQPKSVEDLLDRINLKEHMPTFLFNGYEDLDTFKLLEEEDLDELNIRDPEHRAVLLTAVLLLQEYDSN it was -0.587 ± 0.046; in that of GRPPQPKSVEDLLDRINRKEHMPTFLFNGYEDLDTFKLLEEEDLDELNIRDPEHRAVLLTAVELLQEYDSN, -1.02 ± 0.066; in that of GRPPQPKSVEDLLDRINTKEHMPTFLFNGYEDLDTFKLLEEEDLDELNIRDPEHRAVLLTAVELLQEYDSN, -0.73 ± 0.06.
As for GRPPQPKSVEDLLDRINAKEHMPTFLFNGYEDLDTFKLLEEEDLDELNIRDPEHRAVLLTAVELLQEYDSN, the figure is -0.804 ± 0.064; as for GRPPQPKSVEDLLDRINGKEHMPTFLFNGYEDLDTFKLLEEEDLDELNIRDPEHRAVLLTAVELLQEYDSN, -0.89 ± 0.064; as for GRPPQPKSVEDLLDRINLKEHMPTFLFNGYEDLDTFKLLEEEDLDELNIRLPEHRAVLLTAVELLQEYDSN, -0.632 ± 0.042.
Turning to GRPPKPKSVEDLLDRINLKEHMPTFLFNGYEDLDTFKLLEEEDLDELNIRDPEHRAVLLTAVELLQEYDSN, the abundance fitness was -0.258 ± 0.061.
In the case of GRPPGPKSVEDLLDRINLKEHMPTFLFNGYEDLDTFKLLEEEDLDELNIRDPEHRAVLLTAVELLQEYDSN it was -0.694 ± 0.093.
For the variant GRPPQPKSVEDLLDRINLKEHMPTFLFNGYEDLDTFKLLEEEDLDELNIRDPERRAVLLTAVELLQEYDSN, the abundance fitness was -0.823 ± 0.053.
In the case of GRPPQPKSVEDLLDRINLKEHMPTFLFNGYEDADTFKLLEEEDLDELNIRDPEHRAVLLTAVELLQEYDSN it was -0.883 ± 0.087; in that of GRPPQPKSVEDLLDRINLKEHMPTFLFNGYEDTDTFKLLEEEDLDELNIRDPEHRAVLLTAVELLQEYDSN, -0.828 ± 0.08; in that of GRPPQPKSVEDLLDRINLKEDMPTFLFNGYEDLDTFKLLEEEDLDELNIRDPEHRAVLLTAVELLQEYDSN, -0.889 ± 0.097.
In the case of GRPPQPKSVEDLLDRINLKEHMPTFLFNGYEDLDTFKLLEEEDLDELNIRDPEHRAVLLTAVELIQEYDSN it was -0.433 ± 0.052; in that of GRPPQPKSVEDLLDRINLKEHMPTFLFNGYEDLDTFKLLEEEDLDELNIRDPEHRAVLLTAVELLHEYDSN, -0.035 ± 0.043; in that of GRPPQPKSVEDLLDRINLKEHMPTFLFNGYEDLDTFKLLEEEDLDELNIRDPEHRAVLLTAVELLSEYDSN, -0.331 ± 0.039.
As for GRPPQPKSVEDLGDRINLKEHMPTFLFNGYEDLDTFKLLEEEDLDELNIRDPEHRAVLLTAVELLQEYDSN, the figure is -0.752 ± 0.072; as for GRPPQPKSVEDLLDRHNLKEHMPTFLFNGYEDLDTFKLLEEEDLDELNIRDPEHRAVLLTAVELLQEYDSN, -0.278 ± 0.069.
With GRPPQPKSVEDLLDRINLKEHMPTFLFNGYEDLDTFKLLEEEDLDELNIRDPEHRAVLLAAVELLQEYDSN, the abundance fitness turned out to be 0.242 ± 0.042.
